Assay results: the supplement of paper PMC11246515
± gives the standard deviation of the averaged measurements.

Test: total protein half-life in vivo (active degradation + dilution); higher = more stable protein
[1] = E. coli NCM3722 delta-clpP delta-lon delta-hslV, growth: N-lim chemostat, doubling time 6 h
[2] = E. coli NCM3722 delta-clpP, growth: N-lim chemostat, doubling time 6 h
[3] = E. coli NCM3722 delta-hslV, growth: N-lim chemostat, doubling time 6 h
[4] = E. coli NCM3722 delta-lon, growth: N-lim chemostat, doubling time 6 h
[5] = E. coli NCM3722 delta-smpB, growth: N-lim chemostat, doubling time 6 h
[6] = wild type E. coli NCM3722, growth: C-lim chemostat, doubling time 3 h
[7] = wild type E. coli NCM3722, growth: C-lim chemostat, doubling time 6 h
[8] = wild type E. coli NCM3722, growth: C-lim chemostat, doubling time 12 h
[9] = wild type E. coli NCM3722, growth: N-lim chemostat, doubling time 6 h
[10] = wild type E. coli NCM3722, growth: N-lim chemostat, doubling time 12 h
[11] = wild type E. coli NCM3722, growth: P-lim chemostat, doubling time 6 h
[12] = wild type E. coli NCM3722, growth: P-lim chemostat, doubling time 12 h

Sequence: MSQEYIEDKEVTLTKLSSGRRLLEALLILIVLFAVWLMAALLSFNPSDPSWSQTAWHEPIHNLGGMPGAWLADTLFFIFGVMAYTIPVIIVGGCWFAWRHQSSDEYIDYFAVSLRIIGVLALILTSCGLAAINADDIWYFASGGVIGSLLSTTLQPLLHSSGGTIALLCVWAAGLTLFTGWSWVTIAEKLGGWILNILTFASNRTRRDDTWVDEDEYEDDEEYEDENHGKQHESRRARILRGALARRKRLAEKFINPMGRQTDAALFSGKRMDDDEEITYTARGVAADPDDVLFSGNRATQPEYDEYDPLLNGAPITEPVAVAAAATTATQSWAAPVEPVTQTPPVASVDVPPAQPTVAWQPVPGPQTGEPVIAPAPEGYPQQSQYAQPAVQYNEPLQQPVQPQQPYYAPAAEQPAQQPYYAPAPEQPVAGNAWQAEEQQSTFAPQSTYQTEQTYQQPAAQEPLYQQPQPVEQQPVVEPEPVVEETKPARPPLYYFEEVEEKRAREREQLAAWYQPIPEPVKEPEPIKSSLKAPSVAAVPPVEAAAAVSPLASGVKKATLATGAAATVAAPVFSLANSGGPRPQVKEGIGPQLPRPKRIRVPTRRELASYGIKLPSQRAAEEKAREAQRNQYDSGDQYNDDEIDAMQQDELARQFAQTQQQRYGEQYQHDVPVNAEDADAAAEAELARQFAQTQQQRYSGEQPAGANPFSLDDFEFSPMKALLDDGPHEPLFTPIVEPVQQPQQPVAPQQQYQQPQQPVPPQPQYQQPQQPVAPQPQYQQPQQPVAPQQQYQQPQQPVAPQQQYQQPQQPVAPQPQDTLLHPLLMRNGDSRPLHKPTTPLPSLDLLTPPPSEVEPVDTFALEQMARLVEARLADFRIKADVVNYSPGPVITRFELNLAPGVKAARISNLSRDLARSLSTVAVRVVEVIPGKPYVGLELPNKKRQTVYLREVLDNAKFRDNPSPLTVVLGKDIAGEPVVADLAKMPHLLVAGTTGSGKSVGVNAMILSMLYKAQPEDVRFIMIDPKMLELSVYEGIPHLLTEVVTDMKDAANALRWCVNEMERRYKLMSALGVRNLAGYNEKIAEADRMMRPIPDPYWKPGDSMDAQHPVLKKEPYIVVLVDEFADLMMTVGKKVEELIARLAQKARAAGIHLVLATQRPSVDVITGLIKANIPTRIAFTVSSKIDSRTILDQAGAESLLGMGDMLYSGPNSTLPVRVHGAFVRDQEVHAVVQDWKARGRPQYVDGITSDSESEGGAGGFDGAEELDPLFDQAVQFVTEKRKASISGVQRQFRIGYNRAARIIEQMEAQGIVSEQGHNGNREVLAPPPFD
- total protein half-life in vivo [1]: 3.531 ± 0.015 h
- total protein half-life in vivo [2]: 2.17 ± 0.29 h
- total protein half-life in vivo [3]: 1.2 ± 0.38 h
- total protein half-life in vivo [4]: 1.48 ± 0.059 h
- total protein half-life in vivo [5]: 0.895 ± 0.031 h
- total protein half-life in vivo [6]: 0.891 ± 0.042 h
- total protein half-life in vivo [7]: 1.36 ± 0.11 h
- total protein half-life in vivo [8]: 1.76 ± 0.29 h
- total protein half-life in vivo [9]: 1.39 ± 0.31 h
- total protein half-life in vivo [10]: 1.57 ± 0.13 h
- total protein half-life in vivo [11]: 1.48 ± 0.15 h
- total protein half-life in vivo [12]: 2.78 ± 1 h

Sequence: MNKAKRLEILTRLRENNPHPTTELNFSSPFELLIAVLLSAQATDVSVNKATAKLYPVANTPAAMLELGVEGVKTYIKTIGLYNSKAENIIKTCRILLEQHNGEVPEDRAALEALPGVGRKTANVVLNTAFGWPTIAVDTHIFRVCNRTQFAPGKNVEQVEEKLLKVVPAEFKVDCHHWLILHGRYTCIARKPRCGSCIIEDLCEYKEKVDI [P0AB83]
- total protein half-life in vivo [1]: 5.59 ± 0.65 h
- total protein half-life in vivo [2]: 5.67 ± 0.41 h
- total protein half-life in vivo [3]: 5.9 ± 0.36 h
- total protein half-life in vivo [5]: 5.611 ± 0.039 h
- total protein half-life in vivo [6]: 3.22 ± 0.093 h
- total protein half-life in vivo [7]: 5.58 ± 0.078 h
- total protein half-life in vivo [8]: 10.7 ± 0.51 h
- total protein half-life in vivo [9]: 5.79 ± 0.092 h
- total protein half-life in vivo [10]: 11.95 ± 0.045 h
- total protein half-life in vivo [11]: 5.88 ± 0.55 h
- total protein half-life in vivo [12]: 10.9 ± 0.86 h

Sequence: MTMNITSKQMEITPAIRQHVADRLAKLEKWQTHLINPHIILSKEPQGFVADATINTPNGVLVASGKHEDMYTAINELINKLERQLNKLQHKGEARRAATSVKDANFVEEVEEE [P0AD49]
- total protein half-life in vivo [1]: 6.33 ± 1.1 h
- total protein half-life in vivo [2]: 4.87 h
- total protein half-life in vivo [3]: 1.49 h
- total protein half-life in vivo [5]: 0.687 h
- total protein half-life in vivo [6]: 0.852 ± 0.17 h
- total protein half-life in vivo [7]: 2.32 h
- total protein half-life in vivo [8]: 2.47 ± 0.42 h
- total protein half-life in vivo [10]: 1.07 h
- total protein half-life in vivo [12]: 1.59 h

Sequence: MGLCSRYKSLTCNSCSMHCQIMPEESPRLQYCANSCFCMWPEESSYFNRGVVEGILTKNHNARLSGYIFVDFSVSFLRLFLEKDWIDYLASTDMGIVLVSDRNMQSLANYWRKHNSAISAVIYNDDGLDVANEKIRQLFIGRYLSFTGGNTLTQMEFTIMGYMVSGYNPYQIAEVLDMDIRSIYAYKQRIEKRMGGKINELFIRSHSVQH
- total protein half-life in vivo [1]: 4.5 ± 2.7 h

Sequence: MNEHHQPFEEIKLINANGAEQWSARQLGKLLGYSEYRHFIPVLTRAKEACENSGHTIDDHFEEILDMVKIGSNAKRALKDIVLSRYACYLVVQNGDPAKPVIAAGQTYFAIQTRRQELADDEAFKQLREDEKRLFLRNELKEHNKQLVEAAQQAGVATATDFAIFQNHGYQGLYGGLDQKAIHQRKGLKKNQKILDHMGSTELAANLFRATQTEEKLKRDGVNSKQQANTTHFDVGRKVRQTIQELGGTMPEELPTPQVSIKQLENSVKITEKK
- total protein half-life in vivo [6]: 2.12 h
- total protein half-life in vivo [7]: 3.02 h
- total protein half-life in vivo [8]: 5.87 h

Sequence: MLNPIVRKFQYGQHTVTLETGMMARQATAAVMVSMDDTAVFVTVVGQKKAKPGQDFFPLTVNYQERTYAAGRIPGSFFRREGRPSEGETLIARLIDRPIRPLFPEGFVNEVQVIATVVSVNPQVNPDIVAMIGASAALSLSGIPFNGPIGAARVGYINDQYVLNPTQDELKESKLDLVVAGTEAAVLMVESEAQLLSEDQMLGAVVFGHEQQQVVIQNINELVKEAGKPRWDWQPEPVNEALNARVAALAEARLSDAYRITDKQERYAQVDVIKSETIATLLAEDETLDENELGEILHAIEKNVVRSRVLAGEPRIDGREKDMIRGLDVRTGVLPRTHGSALFTRGETQALVTATLGTARDAQVLDELMGERTDTFLFHYNFPPYSVGETGMVGSPKRREIGHGRLAKRGVLAVMPDMDKFPYTVRVVSEITESNGSSSMASVCGASLALMDAGVPIKAAVAGIAMGLVKEGDNYVVLSDILGDEDHLGDMDFKVAGSRDGISALQMDIKIEGITKEIMQVALNQAKGARLHILGVMEQAINAPRGDISEFAPRIHTIKINPDKIKDVIGKGGSVIRALTEETGTTIEIEDDGTVKIAATDGEKAKHAIRRIEEITAEIEVGRVYTGKVTRIVDFGAFVAIGGGKEGLVHISQIADKRVEKVTDYLQMGQEVPVKVLEVDRQGRIRLSIKEATEQSQPAAAPEAPAAEQGE
- total protein half-life in vivo [1]: 6.65 ± 0.71 h
- total protein half-life in vivo [2]: 6.67 ± 0.63 h
- total protein half-life in vivo [3]: 5.92 ± 0.65 h
- total protein half-life in vivo [4]: 6.01 ± 0.18 h
- total protein half-life in vivo [5]: 5.58 ± 0.41 h
- total protein half-life in vivo [6]: 3.25 ± 0.055 h
- total protein half-life in vivo [7]: 6.31 ± 0.21 h
- total protein half-life in vivo [8]: 11.5 ± 0.16 h
- total protein half-life in vivo [9]: 5.78 ± 0.26 h
- total protein half-life in vivo [10]: 11.8 ± 0.57 h
- total protein half-life in vivo [11]: 6.05 ± 0.14 h
- total protein half-life in vivo [12]: 12.4 ± 1.5 h
